System: Escherichia coli TOP10
Assay: shrunken log2 fold change of peptide-encoding DNA abundance (4.5 h post-induction vs induction); higher = less antimicrobial activity (less host growth inhibition)
Settings: time post-induction: 4.5 h; library: site-saturation at positions 5, 18, 19, 20
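Further: peptides expressed intracellularly from a pBAD plasmid library in pooled LB shake-flask culture, induced with 0.3% L-arabinose, DNA abundance read by NGS, three biological replicates, DESeq2 with apeglm shrinkage.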

Row | Sequence | shrunken log2 fold change
1 | RRIRCRPPRLPRPRPRPCQLPRP | -0.171
2 | RRIRCRPPRLPRPRPRPCQSPRP | 0.00299
3 | RRIRCRPPRLPRPRPRPCRPPRP | -0.0339
4 | RRIRCRPPRLPRPRPRPCRTPRP | -0.168
5 | RRIRCRPPRLPRPRPRPCTAPRP | -0.361
6 | RRIRCRPPRLPRPRPRPCTGPRP | -0.307
7 | RRIRCRPPRLPRPRPRPCTNPRP | -0.134
8 | RRIRCRPPRLPRPRPRPCTSPRP | -0.647
9 | RRIRCRPPRLPRPRPRPCTWPRP | -0.0985
10 | RRIRCRPPRLPRPRPRPCWSPRP | -0.352
11 | RRIRCRPPRLPRPRPRPCYAPRP | -0.387
12 | RRIRCRPPRLPRPRPRPDCIPRP | -0.027
13 | RRIRCRPPRLPRPRPRPDDAPRP | -0.0228
14 | RRIRCRPPRLPRPRPRPDDMPRP | -0.477
15 | RRIRCRPPRLPRPRPRPDDTPRP | -0.36
16 | RRIRCRPPRLPRPRPRPDEIPRP | 0.146
17 | RRIRCRPPRLPRPRPRPDFQPRP | -0.294
18 | RRIRCRPPRLPRPRPRPDGNPRP | -0.158
19 | RRIRCRPPRLPRPRPRPDINPRP | -0.294
20 | RRIRCRPPRLPRPRPRPDMCPRP | -0.13
21 | RRIRCRPPRLPRPRPRPDMKPRP | -0.996
22 | RRIRCRPPRLPRPRPRPDNTPRP | 0.881
23 | RRIRCRPPRLPRPRPRPDPLPRP | 0.00869
24 | RRIRCRPPRLPRPRPRPDPSPRP | -0.0265
25 | RRIRCRPPRLPRPRPRPDPYPRP | -0.197

Row | Sequence | shrunken log2 fold change
26 | RRIRCRPPRLPRPRPRPDQMPRP | 0.101
27 | RRIRCRPPRLPRPRPRPDRDPRP | 0.108
28 | RRIRCRPPRLPRPRPRPDRQPRP | 0.00868
29 | RRIRCRPPRLPRPRPRPDSAPRP | -0.181
30 | RRIRCRPPRLPRPRPRPDVEPRP | -0.421
31 | RRIRCRPPRLPRPRPRPDVQPRP | 0.0161
32 | RRIRCRPPRLPRPRPRPDVSPRP | -0.185
33 | RRIRCRPPRLPRPRPRPDWLPRP | -0.0386
34 | RRIRCRPPRLPRPRPRPDWNPRP | -0.523
35 | RRIRCRPPRLPRPRPRPDYYPRP | -0.231
36 | RRIRCRPPRLPRPRPRPEAFPRP | 0.13
37 | RRIRCRPPRLPRPRPRPEAIPRP | 0.117
38 | RRIRCRPPRLPRPRPRPECKPRP | -0.255
39 | RRIRCRPPRLPRPRPRPEDVPRP | -0.0129
40 | RRIRCRPPRLPRPRPRPEDYPRP | -0.304
41 | RRIRCRPPRLPRPRPRPEFEPRP | 0.0293
42 | RRIRCRPPRLPRPRPRPEHNPRP | -0.377
43 | RRIRCRPPRLPRPRPRPEHTPRP | -0.0466
44 | RRIRCRPPRLPRPRPRPEIHPRP | -0.217
45 | RRIRCRPPRLPRPRPRPEIIPRP | -0.363
46 | RRIRCRPPRLPRPRPRPEMNPRP | -0.036
47 | RRIRCRPPRLPRPRPRPENMPRP | -0.57
48 | RRIRCRPPRLPRPRPRPENNPRP | -0.303
49 | RRIRCRPPRLPRPRPRPEPHPRP | 0.489
50 | RRIRCRPPRLPRPRPRPEPPPRP | 2.06

Row | Sequence | shrunken log2 fold change
51 | RRIRCRPPRLPRPRPRPEPTPRP | 0.628
52 | RRIRCRPPRLPRPRPRPEQKPRP | -0.0751
53 | RRIRCRPPRLPRPRPRPERFPRP | 0.00138
54 | RRIRCRPPRLPRPRPRPERHPRP | -0.0311
55 | RRIRCRPPRLPRPRPRPETAPRP | 0.308
56 | RRIRCRPPRLPRPRPRPETWPRP | 0.203
57 | RRIRCRPPRLPRPRPRPEVQPRP | 0.267
58 | RRIRCRPPRLPRPRPRPEWPPRP | 0.331
59 | RRIRCRPPRLPRPRPRPEYRPRP | -0.00301
60 | RRIRCRPPRLPRPRPRPEYYPRP | -0.159
61 | RRIRCRPPRLPRPRPRPFCKPRP | -0.0692
62 | RRIRCRPPRLPRPRPRPFCVPRP | -0.248
63 | RRIRCRPPRLPRPRPRPFDCPRP | -0.95
64 | RRIRCRPPRLPRPRPRPFDHPRP | 0.0529
65 | RRIRCRPPRLPRPRPRPFEGPRP | 0.0192
66 | RRIRCRPPRLPRPRPRPFGCPRP | -0.308
67 | RRIRCRPPRLPRPRPRPFHCPRP | -0.451
68 | RRIRCRPPRLPRPRPRPFIDPRP | -0.464
69 | RRIRCRPPRLPRPRPRPFLVPRP | -0.511
70 | RRIRCRPPRLPRPRPRPFMCPRP | -0.0735
71 | RRIRCRPPRLPRPRPRPFMHPRP | -1.01
72 | RRIRCRPPRLPRPRPRPFPWPRP | -0.361
73 | RRIRCRPPRLPRPRPRPFQFPRP | 0.133
74 | RRIRCRPPRLPRPRPRPFQHPRP | -0.221
75 | RRIRCRPPRLPRPRPRPFQWPRP | -0.0999

Row | Sequence | shrunken log2 fold change
76 | RRIRCRPPRLPRPRPRPFRSPRP | -0.142
77 | RRIRCRPPRLPRPRPRPFRTPRP | -0.421
78 | RRIRCRPPRLPRPRPRPFSCPRP | 0.0218
79 | RRIRCRPPRLPRPRPRPFSWPRP | -0.141
80 | RRIRCRPPRLPRPRPRPFTAPRP | -0.553
81 | RRIRCRPPRLPRPRPRPFTDPRP | -0.182
82 | RRIRCRPPRLPRPRPRPFVQPRP | -0.86
83 | RRIRCRPPRLPRPRPRPGCKPRP | 0.0416
84 | RRIRCRPPRLPRPRPRPGDGPRP | 0.646
85 | RRIRCRPPRLPRPRPRPGHQPRP | 0.242
86 | RRIRCRPPRLPRPRPRPGIAPRP | 0.201
87 | RRIRCRPPRLPRPRPRPGIHPRP | -0.405
88 | RRIRCRPPRLPRPRPRPGIWPRP | 0.485
89 | RRIRCRPPRLPRPRPRPGKCPRP | -0.173
90 | RRIRCRPPRLPRPRPRPGKFPRP | -0.188
91 | RRIRCRPPRLPRPRPRPGPIPRP | 0.367
92 | RRIRCRPPRLPRPRPRPGQKPRP | 0.0902
93 | RRIRCRPPRLPRPRPRPGTHPRP | -0.243
94 | RRIRCRPPRLPRPRPRPGVDPRP | -0.0475
95 | RRIRCRPPRLPRPRPRPGVMPRP | 0.0691
96 | RRIRCRPPRLPRPRPRPGVNPRP | -0.584
97 | RRIRCRPPRLPRPRPRPGVQPRP | -0.419
98 | RRIRCRPPRLPRPRPRPHAVPRP | -0.559
99 | RRIRCRPPRLPRPRPRPHCEPRP | -0.226
100 | RRIRCRPPRLPRPRPRPHCQPRP | 0.0911

Row | Sequence | shrunken log2 fold change
101 | RRIRCRPPRLPRPRPRPHHYPRP | -0.685
102 | RRIRCRPPRLPRPRPRPHIDPRP | -0.42
103 | RRIRCRPPRLPRPRPRPHIHPRP | -0.759
104 | RRIRCRPPRLPRPRPRPHKAPRP | -0.253
105 | RRIRCRPPRLPRPRPRPHKQPRP | -0.0354
106 | RRIRCRPPRLPRPRPRPHKTPRP | -0.0871
107 | RRIRCRPPRLPRPRPRPHLGPRP | -0.0785
108 | RRIRCRPPRLPRPRPRPHPAPRP | 0.34
109 | RRIRCRPPRLPRPRPRPHPQPRP | 0.266
110 | RRIRCRPPRLPRPRPRPHPSPRP | -0.00515
111 | RRIRCRPPRLPRPRPRPHPYPRP | -0.296
112 | RRIRCRPPRLPRPRPRPHQGPRP | -0.0624
113 | RRIRCRPPRLPRPRPRPHQPPRP | 0.0495
114 | RRIRCRPPRLPRPRPRPHREPRP | -0.0514
115 | RRIRCRPPRLPRPRPRPHSFPRP | -0.404
116 | RRIRCRPPRLPRPRPRPHSYPRP | -0.272
117 | RRIRCRPPRLPRPRPRPHTCPRP | 0.0253
118 | RRIRCRPPRLPRPRPRPHTDPRP | -0.246
119 | RRIRCRPPRLPRPRPRPHTMPRP | -0.371
120 | RRIRCRPPRLPRPRPRPHVGPRP | 0.0562
121 | RRIRCRPPRLPRPRPRPHVHPRP | -0.245
122 | RRIRCRPPRLPRPRPRPHVQPRP | -0.224
123 | RRIRCRPPRLPRPRPRPIAAPRP | 0.549
124 | RRIRCRPPRLPRPRPRPIAFPRP | -0.195
125 | RRIRCRPPRLPRPRPRPICMPRP | -0.491

Row | Sequence | shrunken log2 fold change
126 | RRIRCRPPRLPRPRPRPIDCPRP | -0.128
127 | RRIRCRPPRLPRPRPRPIECPRP | -0.00475
128 | RRIRCRPPRLPRPRPRPIEHPRP | -0.00454
129 | RRIRCRPPRLPRPRPRPIEQPRP | 0.0493
130 | RRIRCRPPRLPRPRPRPIETPRP | -0.0366
131 | RRIRCRPPRLPRPRPRPIEVPRP | -0.0598
132 | RRIRCRPPRLPRPRPRPIFLPRP | -0.257
133 | RRIRCRPPRLPRPRPRPIIIPRP | -0.816
134 | RRIRCRPPRLPRPRPRPIKDPRP | -0.533
135 | RRIRCRPPRLPRPRPRPILNPRP | -0.431
136 | RRIRCRPPRLPRPRPRPIPKPRP | 0.326
137 | RRIRCRPPRLPRPRPRPIPMPRP | -0.108
138 | RRIRCRPPRLPRPRPRPIQNPRP | -0.538
139 | RRIRCRPPRLPRPRPRPIQPPRP | -0.137
140 | RRIRCRPPRLPRPRPRPIRAPRP | -0.0291
141 | RRIRCRPPRLPRPRPRPIRHPRP | -0.146
142 | RRIRCRPPRLPRPRPRPISQPRP | -0.544
143 | RRIRCRPPRLPRPRPRPITQPRP | -0.0791
144 | RRIRCRPPRLPRPRPRPIVAPRP | 0.0801
145 | RRIRCRPPRLPRPRPRPIWAPRP | -0.0162
146 | RRIRCRPPRLPRPRPRPIWKPRP | 0.0906
147 | RRIRCRPPRLPRPRPRPIYCPRP | -0.14
148 | RRIRCRPPRLPRPRPRPIYSPRP | -0.59
149 | RRIRCRPPRLPRPRPRPKDWPRP | 0.378
150 | RRIRCRPPRLPRPRPRPKFYPRP | -0.309
